Experimental data published in patent publication US20240262926A1 (published 2024).

T1: recombinant monkey TfR (r monkey TfR: Sino Biological Inc.) (cynomolgus monkey (Macaca fascicularis), UniProt Q5RDH6 89-760 (Pongo abelii entry))
T1 construct: Bought product; also called r monkey TfR-ECD (Histag); cynomolgus monkey TfR; not shown: histidine tag attached to the N-terminus
T1 chain: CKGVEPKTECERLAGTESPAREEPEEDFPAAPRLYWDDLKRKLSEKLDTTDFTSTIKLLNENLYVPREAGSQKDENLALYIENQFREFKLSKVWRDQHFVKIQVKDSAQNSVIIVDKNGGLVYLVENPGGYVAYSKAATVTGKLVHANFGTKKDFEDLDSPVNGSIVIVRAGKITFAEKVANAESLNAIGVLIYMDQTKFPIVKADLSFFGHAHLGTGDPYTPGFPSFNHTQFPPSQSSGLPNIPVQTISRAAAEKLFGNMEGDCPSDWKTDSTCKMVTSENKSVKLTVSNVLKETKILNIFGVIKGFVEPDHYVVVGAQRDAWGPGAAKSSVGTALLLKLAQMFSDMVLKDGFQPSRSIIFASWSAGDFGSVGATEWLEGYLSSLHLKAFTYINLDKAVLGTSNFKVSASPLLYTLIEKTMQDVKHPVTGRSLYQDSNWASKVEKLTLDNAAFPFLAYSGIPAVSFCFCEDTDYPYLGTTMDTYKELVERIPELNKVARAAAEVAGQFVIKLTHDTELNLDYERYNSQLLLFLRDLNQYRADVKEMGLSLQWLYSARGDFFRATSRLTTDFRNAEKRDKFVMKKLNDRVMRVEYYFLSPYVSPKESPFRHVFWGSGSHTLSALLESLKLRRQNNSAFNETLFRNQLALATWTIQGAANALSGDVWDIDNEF


Assays:
[1] = target: human TrkB (GenBank Acc. No. NP_001018074.1) expressed in CHO cells (human, UniProt Q16620 32-822); test: cell-based or functional assay
[2] = target: T1, recombinant monkey TfR (r monkey TfR: …); test: ELISA, plate-coated recombinant TfR, detection with biotin-labeled anti-BDNF antibody and streptavidin-HRP
Procedure: (§1) The affinity of the hBDNF-anti-hTfR antibody fusion protein to hTfR was measured using an ELISA method. The measurement by the ELISA method was generally carried out by the following method. As human TfR, recombinant human TfR (r human TfR: Sino Biological Inc.) having the amino acid sequence of the extracellular region of hTfR, ranging from the cysteine residue at the position 89th from the N-terminal side to the phenylalanine at the C-terminus in the amino acid sequence set forth as SEQ ID NO:1, to the N-terminus of which a histidine tag was added, was used. As monkey TfR, recombinant monkey TfR (r monkey TfR: Sino Biological Inc.) having the amino acid sequence of the extracellular region of cynomolgus monkey hTfR, ranging from the cysteine residue at the position 89th from the N-terminal side to the phenylalanine at the C-terminus in the amino acid sequence set forth as SEQ ID NO:2, to the N-terminus of which a histidine tag was added, was used. The measurement was carried out on the hBDNF-anti-hTfR antibodies 3, 4 and 6 among the hBDNF-humanized anti-hTfR antibody fusion proteins obtained in Example 17.
(§2) Recombinant human and monkey TfR (Sino Biological Inc.) were each diluted to 0.5 μg/mL, and the diluted solution was then added in an amount of 100 μL to each well of a 96-well plate (Nunc Inc), followed by leaving it to stand for 1 hour. […]

[3] = target: T2, recombinant human TfR (r human TfR: Sino Biological Inc.) (human, UniProt P02786 89-760); test: as above
T2 construct: Bought product; also called r human TfR-ECD (Histag); hTfR; not shown: histidine tag attached to the N-terminus
Procedure: as §1, §2

[4] = target: T1, recombinant monkey TfR (r monkey TfR: …); test: ELISA on plate-coated recombinant TfR ('the present measurement method' of Example 18-2)
[5] = target: T2, recombinant human TfR (r human TfR: …); test: as above
[6] = target: T1, recombinant monkey TfR (r monkey TfR: …); test: BLI (Octet RED96), method of Example 7, His-tagged TfR ECD on Ni-NTA sensor
Procedure: (§3) Each of the antibodies (anti-hTfR antibody Nos. 1 to 14) purified above was subjected to 2-fold dilution steps with HBS-P+(10 mM HEPES containing 150 mM NaCl, 50 μM EDTA and 0.05% Surfactant P20) to prepare antibody solutions of 7 different concentrations, 0.78125 to 50 nM (0.117 to 7.5 μg/mL). These antibody solutions were used as the sample solutions. The r human and r monkey TfRs were respectively diluted with HBS-P+ to prepare 25 μg/mL solutions, which were used as r human TfR-ECD (Histag) solution and r monkey TfR-ECD (Histag) solution, respectively.
(§4) Each of the sample solutions prepared above by 2-fold dilution steps was added, 200 μL/well, to a 96-well plate, black (Greiner Bio-One Inc.). Each of the r human TfR-ECD (Histag) solution and the r monkey TfR-ECD (Histag) solutions prepared above was added, 200 μL/well, to predetermined wells. To respective wells for baseline, dissociation and washing were added HBS-P+, 200 μL/well. To wells for regeneration were added 10 mM Glycine-HCl, pH 1.7, 200 μL/well. To wells for activation was added 0.5 mM NiCl₂ solution, 200 μL/well. The plate and biosensor (Biosensor/Ni-NTA: ForteBio Inc., a division of Pall Corporation) were set in the prescribed positions of Octet RED96. […] The measurement was performed at 25 to 30° C.
(§5) The affinity of the humanized anti-hTfR antibodies obtained in Example 13 to human and monkey TfRs was measured by the method described in Example 7.

[7] = target: T2, recombinant human TfR (r human TfR: …); test: as above
Procedure: as §3, §4, §5

Sequence of human TrkB (GenBank Acc. No. NP_001018074.1) expressed in CHO cells (Q16620 32-822): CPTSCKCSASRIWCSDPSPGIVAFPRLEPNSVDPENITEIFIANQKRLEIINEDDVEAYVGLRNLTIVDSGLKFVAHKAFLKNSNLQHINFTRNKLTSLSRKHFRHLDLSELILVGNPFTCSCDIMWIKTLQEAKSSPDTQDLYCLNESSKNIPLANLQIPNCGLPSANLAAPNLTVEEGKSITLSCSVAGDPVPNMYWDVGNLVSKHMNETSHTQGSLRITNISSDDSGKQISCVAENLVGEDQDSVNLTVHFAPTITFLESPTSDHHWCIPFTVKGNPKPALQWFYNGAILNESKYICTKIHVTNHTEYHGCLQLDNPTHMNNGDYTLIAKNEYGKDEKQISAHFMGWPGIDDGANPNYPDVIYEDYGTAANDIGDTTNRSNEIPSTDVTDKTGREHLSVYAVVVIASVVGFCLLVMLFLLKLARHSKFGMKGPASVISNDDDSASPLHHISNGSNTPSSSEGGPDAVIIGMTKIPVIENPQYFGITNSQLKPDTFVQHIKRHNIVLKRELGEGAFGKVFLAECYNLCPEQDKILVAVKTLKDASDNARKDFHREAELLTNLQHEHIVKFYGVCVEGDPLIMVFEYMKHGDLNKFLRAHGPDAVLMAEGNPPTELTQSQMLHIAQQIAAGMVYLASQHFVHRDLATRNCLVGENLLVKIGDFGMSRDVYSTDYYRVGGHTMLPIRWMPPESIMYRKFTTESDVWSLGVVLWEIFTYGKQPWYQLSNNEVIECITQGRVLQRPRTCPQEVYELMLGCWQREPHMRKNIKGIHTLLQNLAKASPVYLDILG

BDNF activity (TrkB agonistic EC50, nmol/L) [1] [nmol/L]	EC50 [2] [nM]	EC50 [3] [nM]	EC50 [4] [nM]	EC50 [5] [nM]	Kd [6] [nM]	koff [6] [s⁻¹]	kon [6] [M⁻¹ s⁻¹]	Kd [7] [nM]	koff [7] [s⁻¹]	kon [7] [M⁻¹ s⁻¹]	Binder
0.16	2.3	0.63									hBDNF-anti-hTfR antibody 6 (other, also called fusion protein of hBDNF and humanized anti-hTfR antibody Fab; product of pE-neo (BDNF-Fab HC-1) and pE-hygr (LC3)) heavy: HSDPARRGELSVCDSISEWVTAADKKTAVDMSGGTVTVLEKVPVSKGQLKQYFYETKCNPMGYTKEGCRGIDKRHWNSQCRTTQSYVRALTMDSKKRIGWRFIRIDTSCVCTLTIKRGRGSGGGGSGGGGSGGGGSGGGGSGGGGSEVQLVQSGAEVKKPGESLKISCKGSGYSFTNYWLGWVRQMPGKGLEWMGDIYPGGDYPTYSEKFKVQVTISADKSISTAYLQWSSLKASDTAMYYCARSGNYDEVAYWGQGTLVTVSSASTKGPSVFPLAPSSKSTSGGTAALGCLVKDYFPEPVTVSWNSGALTSGVHTFPAVLQSSGLYSLSSVVTVPSSSLGTQTYICNVNHKPSNTKVDKKVEPKSCDKTHT light: DIVMTQTPLSLSVTPGQPASISCRSSQSLVHSNGNTYLHWYLQKPGQSPQLLIYKVSNRFSGVPDRFSGSGSGTDFTLKISRVEAEDVGVYYCSQSTHVPWTFGQGTKVEIKRTVAAPSVFIFPPSDEQLKSGTASVVCLLNNFYPREAKVQWKVDNALQSGNSQESVTEQDSKDSTYSLSSTLTLSKADYEKHKVYACEVTHQGLSSPVTKSFNRGEC
			0.25	0.09	1.12	0.000676	603000	< 0.001	< 1e-07	1.19e+06	humanized anti-hTfR antibody No. 3 (antibody, human IgG1, kappa, IgG1; expressed in CHO-K1, purified on Protein A) heavy: not shown light: DIVMTQTPLSLSVTPGQPASISCRSSQSLVHSNGNTYLHWYLQKPGQSPQLLIYKVSNRFSGVPDRFSGSGSGTDFTLKISRVEAEDVGVYYCSQSTHVPWTFGQGTKVEIKRTVAAPSVFIFPPSDEQLKSGTASVVCLLNNFYPREAKVQWKVDNALQSGNSQESVTEQDSKDSTYSLSSTLTLSKADYEKHKVYACEVTHQGLSSPVTKSFNRGEC
